Each block holds one binder with its values, some of them ahead of it. No end group written: not given here. *: point of attachment. BC = 3-(bromoacetyl)-7-diethyl-aminocoumarin, CCN(CC)c1ccc2cc(C(=O)C*)c(=O)oc2c1
What was measured:
[1] = molecular target: T1, PDE6β1-313 (PDE6-specific N-terminal portion of the human rod cGMP phosphodiesterase type 6 β-subunit … (human, UniProt P35913-1 1-313)); assay: other fluorescence titration; CysBC-Pγ24-45 (50 nM) in 1 ml of 100 mM PBS buffer (pH 7.5), increasing concentrations of PDE6β1-313 added; excitation 445 nm, emission 490 nm; fit to a hyperbola; settings: both partners purified
T1 construct: rod cGMP phosphodiesterase type 6 β-subunit (PDE6β), human, residues 1-313; contains the GAFa domain and a portion of the GAFb domain; amplified from a human retinal cDNA library; Cloned into pET15b with NdeI/BamHI; no removal of the tag is described; also called His6-tagged PDE6β1-313; truncated PDE6β
T1 sequence (P35913 1-313, stated change not applied): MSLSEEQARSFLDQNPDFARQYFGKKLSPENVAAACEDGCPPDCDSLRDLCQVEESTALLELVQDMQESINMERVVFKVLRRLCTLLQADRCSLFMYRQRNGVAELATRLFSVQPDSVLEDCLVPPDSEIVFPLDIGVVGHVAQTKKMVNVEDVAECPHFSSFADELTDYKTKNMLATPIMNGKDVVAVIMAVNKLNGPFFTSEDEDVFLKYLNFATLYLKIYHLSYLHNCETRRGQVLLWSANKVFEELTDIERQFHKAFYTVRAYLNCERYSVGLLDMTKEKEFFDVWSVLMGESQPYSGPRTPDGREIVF

[2] = molecular target: trypsin-activated bovine PDE6 (tPDE6), PDE6αβ catalytic subunits lacking the inhibitory Pγ subunits (bovine) (UniProt P11541)
trypsin-activated bovine PDE6 (tPDE6), PDE6αβ catalytic subunits lacking the inhibitory Pγ subunits (bovine), sequence (P11541 whole entry, chain 1 of 2): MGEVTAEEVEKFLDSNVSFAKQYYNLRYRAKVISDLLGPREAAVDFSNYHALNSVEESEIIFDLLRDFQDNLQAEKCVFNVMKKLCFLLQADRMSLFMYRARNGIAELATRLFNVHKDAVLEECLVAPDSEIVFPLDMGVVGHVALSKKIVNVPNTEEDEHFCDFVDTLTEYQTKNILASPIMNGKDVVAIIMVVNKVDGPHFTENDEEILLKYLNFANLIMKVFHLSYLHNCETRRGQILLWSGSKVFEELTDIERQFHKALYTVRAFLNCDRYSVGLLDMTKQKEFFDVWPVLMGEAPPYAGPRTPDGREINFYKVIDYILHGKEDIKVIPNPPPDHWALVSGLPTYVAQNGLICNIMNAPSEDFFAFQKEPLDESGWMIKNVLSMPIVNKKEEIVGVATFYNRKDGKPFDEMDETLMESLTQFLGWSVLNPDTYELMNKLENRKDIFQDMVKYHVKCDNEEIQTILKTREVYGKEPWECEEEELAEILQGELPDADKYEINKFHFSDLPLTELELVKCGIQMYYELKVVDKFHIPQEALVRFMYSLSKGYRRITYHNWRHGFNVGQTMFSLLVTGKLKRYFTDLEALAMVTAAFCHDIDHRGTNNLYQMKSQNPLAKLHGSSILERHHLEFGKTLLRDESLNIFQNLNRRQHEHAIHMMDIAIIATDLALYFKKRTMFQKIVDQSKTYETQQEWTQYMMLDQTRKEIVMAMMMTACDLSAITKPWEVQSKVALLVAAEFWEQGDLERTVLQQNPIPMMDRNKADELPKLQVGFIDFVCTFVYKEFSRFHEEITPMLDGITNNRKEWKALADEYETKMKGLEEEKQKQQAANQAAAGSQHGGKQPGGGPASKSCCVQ
trypsin-activated bovine PDE6 (tPDE6), PDE6αβ catalytic subunits lacking the inhibitory Pγ subunits (bovine), sequence (P23439 whole entry, chain 2 of 2, further chain): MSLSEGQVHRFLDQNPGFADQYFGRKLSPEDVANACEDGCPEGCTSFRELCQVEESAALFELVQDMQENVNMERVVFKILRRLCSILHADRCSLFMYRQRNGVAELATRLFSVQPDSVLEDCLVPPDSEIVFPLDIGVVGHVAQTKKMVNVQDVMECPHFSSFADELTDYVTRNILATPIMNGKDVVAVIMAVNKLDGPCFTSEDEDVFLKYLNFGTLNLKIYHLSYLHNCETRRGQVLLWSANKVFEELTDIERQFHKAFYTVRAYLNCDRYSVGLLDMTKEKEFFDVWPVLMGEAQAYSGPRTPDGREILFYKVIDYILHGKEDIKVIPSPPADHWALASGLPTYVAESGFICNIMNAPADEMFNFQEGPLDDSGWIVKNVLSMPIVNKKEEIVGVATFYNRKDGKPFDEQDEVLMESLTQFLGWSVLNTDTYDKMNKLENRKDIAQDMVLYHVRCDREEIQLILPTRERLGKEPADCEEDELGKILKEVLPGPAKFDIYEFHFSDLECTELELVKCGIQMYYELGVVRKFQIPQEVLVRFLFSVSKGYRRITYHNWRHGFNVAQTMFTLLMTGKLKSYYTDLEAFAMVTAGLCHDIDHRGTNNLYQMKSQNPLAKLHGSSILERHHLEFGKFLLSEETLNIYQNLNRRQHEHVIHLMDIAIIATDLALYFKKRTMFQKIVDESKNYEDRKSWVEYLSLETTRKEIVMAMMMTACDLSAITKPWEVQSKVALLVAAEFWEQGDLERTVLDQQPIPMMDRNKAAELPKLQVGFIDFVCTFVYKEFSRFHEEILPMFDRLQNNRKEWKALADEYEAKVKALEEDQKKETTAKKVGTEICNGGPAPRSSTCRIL

Kd [1]: 320 nM
B1: CysBC-Pγ24-45 (Cys-Pγ24-45 peptide labeled at the N-terminal Cys with 3-(bromoacetyl)-7-diethyl-aminocoumarin) (peptide)
peptide: C(BC)RKGPPKFKQRQTRQFKSKPPKK
notes: Cys added at the N-terminus of the peptide to carry the probe (Cys-Pγ24-45); also called fluorescently labeled Pγ24-45; polycationic region of Pγ; source: synthetic peptide

IC50 of the inhibition of tPDE6 (50 pM) activity ([3H]cGMP hydrolysis) by increasing concentrations of Pγ, in the absence of PDE6β1-313 [2]: 0.53 nM
IC50 of the inhibition of tPDE6 (50 pM) activity ([3H]cGMP hydrolysis) by increasing concentrations of Pγ, in the presence of 2 µM PDE6β1-313 [2]: 1.6 nM
B2: Recombinant bovine rod Pγ-subunit (PDE6 inhibitory γ-subunit) (natural protein)
chain: MNLEPPKAEIRSATRVMGGPVTPRKGPPKFKQRQTRQFKSKPPKKGVQGFGDDIPGMEGLGTDITVICPWEAFNHLELHELAQYGII
